This note sets out measurements from patent publication US20170342167A1 (Hoffmann-La Roche, published 2017).

To fix the notation:
B1: IgG1 Fc-region with L234A/L235A/P329G and H310A/H433A/Y436A in both Fc-region polypeptides (other)
chain: DKTHTCPPCPAPEAAGGPSVFLFPPKPKDTLMISRTPEVTCVVVDVSHEDPEVKFNWYVDGVEVHNAKTKPREEQYNSTYRVVSVLTVLAQDWLNGKEYKCKVSNKALGAPIEKTISKAKGQPREPQVYTLPPSRDELTKNQVSLTCLVKGFYPSDIAVEWESNGQPENNYKTTPPVLDSDGSFFLYSKLTVDKSRWQQGNVFSCSVMHEALANHATQKSLSLSPGK
notes: As m2; Positions are EU numbers, not positions on the entry; also called HHY-AAA mutation
B2: IgG1 Fc-region with L234A/L235A/P329G and I253A/H310A/H435A in both Fc-region polypeptides (other)
chain: DKTHTCPPCPAPEAAGGPSVFLFPPKPKDTLMASRTPEVTCVVVDVSHEDPEVKFNWYVDGVEVHNAKTKPREEQYNSTYRVVSVLTVLAQDWLNGKEYKCKVSNKALGAPIEKTISKAKGQPREPQVYTLPPSRDELTKNQVSLTCLVKGFYPSDIAVEWESNGQPENNYKTTPPVLDSDGSFFLYSKLTVDKSRWQQGNVFSCSVMHEALHNAYTQKSLSLSPGK
notes: As m2; Positions are EU numbers, not positions on the entry; also called IHH-AAA mutation
B3: IgG1 Fc-region with L234A/L235A/P329G and I253A/H435A in both Fc-region polypeptides (other)
chain: DKTHTCPPCPAPEAAGGPSVFLFPPKPKDTLMASRTPEVTCVVVDVSHEDPEVKFNWYVDGVEVHNAKTKPREEQYNSTYRVVSVLTVLHQDWLNGKEYKCKVSNKALGAPIEKTISKAKGQPREPQVYTLPPSRDELTKNQVSLTCLVKGFYPSDIAVEWESNGQPENNYKTTPPVLDSDGSFFLYSKLTVDKSRWQQGNVFSCSVMHEALHNAYTQKSLSLSPGK
notes: As m2; Positions are EU numbers, not positions on the entry
B4: IgG1 Fc-region with L234A/L235A/P329G and I253A/H310A in both Fc-region polypeptides (other)
chain: DKTHTCPPCPAPEAAGGPSVFLFPPKPKDTLMASRTPEVTCVVVDVSHEDPEVKFNWYVDGVEVHNAKTKPREEQYNSTYRVVSVLTVLAQDWLNGKEYKCKVSNKALGAPIEKTISKAKGQPREPQVYTLPPSRDELTKNQVSLTCLVKGFYPSDIAVEWESNGQPENNYKTTPPVLDSDGSFFLYSKLTVDKSRWQQGNVFSCSVMHEALHNHYTQKSLSLSPGK
notes: as for B3
B5: IgG1 Fc-region with L234A/L235A/P329G and H310A/H435A in both Fc-region polypeptides (other)
chain: DKTHTCPPCPAPEAAGGPSVFLFPPKPKDTLMISRTPEVTCVVVDVSHEDPEVKFNWYVDGVEVHNAKTKPREEQYNSTYRVVSVLTVLAQDWLNGKEYKCKVSNKALGAPIEKTISKAKGQPREPQVYTLPPSRDELTKNQVSLTCLVKGFYPSDIAVEWESNGQPENNYKTTPPVLDSDGSFFLYSKLTVDKSRWQQGNVFSCSVMHEALHNAYTQKSLSLSPGK
notes: as for B3
B6: IgG1 Fc-region with L234A/L235A/P329G and H310A/Y436A in both Fc-region polypeptides (other)
chain: DKTHTCPPCPAPEAAGGPSVFLFPPKPKDTLMISRTPEVTCVVVDVSHEDPEVKFNWYVDGVEVHNAKTKPREEQYNSTYRVVSVLTVLAQDWLNGKEYKCKVSNKALGAPIEKTISKAKGQPREPQVYTLPPSRDELTKNQVSLTCLVKGFYPSDIAVEWESNGQPENNYKTTPPVLDSDGSFFLYSKLTVDKSRWQQGNVFSCSVMHEALHNHATQKSLSLSPGK
notes: as for B3

In one test the target is T1, human neonatal Fc-receptor (FcRn) (human, UniProt P55899 24-297; P61769 21-119, limits assumed, biotinylated (site not stated), coupled to streptavidin sepharose).
T1 construct: also called FcRn receptor
T1 sequence (P55899 24-297 limits assumed, chain 1 of 2): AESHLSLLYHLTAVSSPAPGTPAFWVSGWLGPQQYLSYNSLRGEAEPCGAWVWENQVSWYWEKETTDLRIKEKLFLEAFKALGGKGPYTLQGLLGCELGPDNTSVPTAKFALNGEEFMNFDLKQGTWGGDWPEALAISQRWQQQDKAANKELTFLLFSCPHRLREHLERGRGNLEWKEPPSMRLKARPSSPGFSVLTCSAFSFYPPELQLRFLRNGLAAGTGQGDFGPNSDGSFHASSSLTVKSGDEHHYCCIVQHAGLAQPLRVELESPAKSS
T1 sequence (P61769 21-119 limits assumed, chain 2 of 2): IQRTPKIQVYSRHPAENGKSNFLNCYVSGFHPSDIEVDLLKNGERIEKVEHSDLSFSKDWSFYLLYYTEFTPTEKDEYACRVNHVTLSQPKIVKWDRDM
The test is described as follows: FcRn affinity chromatography.
Regarding B1, the binding result is “no binding (tested: retention time below 3 minutes)”.
Still for that read-out and setting: in the case of B2 it was “no binding (tested: retention time below 3 minutes)”; in that of B3, “no binding (tested: retention time below 3 minutes)”; in that of B4, “no binding (tested: retention time below 3 minutes)”.
Still for that read-out and setting: in the case of B5 it was “no binding (tested: retention time below 3 minutes)”; in that of B6, “no binding (tested: retention time below 3 minutes)”.

In a further test the target is T1, human neonatal Fc-receptor (FcRn). Kind of test: FcRn affinity chromatography, anti-HER2 antibody.
Molecule “anti-HER2 antibody symmetrically modified with E258H” displayed a retention time of 45.6 min.
Same read-out and setting: in the case of “anti-HER2 antibody symmetrically modified with E430H” it was 46.4 min.
The same measure, in the same setting: in the case of “anti-HER2 antibody symmetrically modified with K288E” it was 45.2 min; in that of “anti-HER2 antibody symmetrically modified with K290H”, 46.2 min.
Consider “anti-HER2 antibody symmetrically modified with K317H”, for which the retention time came out at 46.3 min.
Same read-out and setting: in the case of “anti-HER2 antibody symmetrically modified with L309H” it was 45.5 min; in that of “anti-HER2 antibody symmetrically modified with N434H”, 52 min; in that of “anti-HER2 antibody symmetrically modified with Q311H”, 46.3 min.
On the same count and under the same terms, in the case of “anti-HER2 antibody symmetrically modified with R255D” it was 41.4 min.
Same read-out and setting: in the case of “anti-HER2 antibody symmetrically modified with T256H” it was 46 min.
anti-HER2 antibody, wild-type: the retention time was 46.3 min.
